Results: US20200079833A1 (AstraZeneca / MedImmune, published 2020)
Starred links: 1 amine or outer side, 2 acyl side, 3 side chain; linkers in the order of their positions; H or OH if unused. Non-standard residues stand in square brackets, D forms with d. Groups on a side chain read outwards from the residue. Primed or numbered codes have the meaning given here. No end group written: not given here. *: point of attachment. γGlu = O=C(O)[C@H](CCC(=O)[*:2])N[*:1]; Stearoyl = CCCCCCCCCCCCCCCCCC(=O)*; αMeF = C[C@](N)(Cc1ccccc1)C(=O)O; αMeK = C[C@](N)(CCCCN)C(=O)O; Lauroyl = CCCCCCCCCCCC(=O)*; αMeS = C[C@](N)(CO)C(=O)O; PEG2′ = not defined here; Aib = CC(C)(N)C(=O)O; Ahx = NCCCCCC(=O)O

T1: glucose-dependent insulinotropic peptide (gastric inhibitory polypeptide) receptor (GIPR) (human, UniProt P48546 22-466)
T1 sequence (looked up): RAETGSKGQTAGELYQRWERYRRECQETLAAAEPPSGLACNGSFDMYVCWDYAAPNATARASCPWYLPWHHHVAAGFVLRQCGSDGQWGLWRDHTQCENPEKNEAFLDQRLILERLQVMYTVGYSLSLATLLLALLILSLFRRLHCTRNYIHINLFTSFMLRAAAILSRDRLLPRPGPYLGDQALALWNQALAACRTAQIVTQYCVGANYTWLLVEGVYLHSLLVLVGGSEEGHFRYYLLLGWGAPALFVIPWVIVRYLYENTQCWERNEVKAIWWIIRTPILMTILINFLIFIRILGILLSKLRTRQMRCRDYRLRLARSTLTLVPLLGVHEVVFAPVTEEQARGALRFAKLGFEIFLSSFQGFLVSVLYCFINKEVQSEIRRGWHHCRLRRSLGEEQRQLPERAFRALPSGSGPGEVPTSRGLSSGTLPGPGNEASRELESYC

B1: SEQ ID NO 166 (peptide)
peptide: H[Aib]EGS[αMeF]TSDV[αMeS]S[αMeF]LEGEAA[αMeK]E[αMeF]IA[αMeF]VVK([γGlu-γGlu-γGlu-Lauroyl])GG-NH2
modifications: N-terminus assumed
SMILES: CCCCCCCCCCCC(=O)N[C@@H](CCC(=O)N[C@@H](CCC(=O)N[C@@H](CCC(=O)NCCCC[C@H](NC(=O)[C@@H](NC(=O)[C@@H](NC(=O)[C@](C)(Cc1ccccc1)NC(=O)[C@H](C)NC(=O)[C@@H](NC(=O)[C@](C)(Cc1ccccc1)NC(=O)[C@H](CCC(=O)O)NC(=O)[C@](C)(CCCCN)NC(=O)[C@H](C)NC(=O)[C@H](C)NC(=O)[C@H](CCC(=O)O)NC(=O)CNC(=O)[C@H](CCC(=O)O)NC(=O)[C@H](CC(C)C)NC(=O)[C@](C)(Cc1ccccc1)NC(=O)[C@H](CO)NC(=O)[C@](C)(CO)NC(=O)[C@@H](NC(=O)[C@H](CC(=O)O)NC(=O)[C@H](CO)NC(=O)[C@@H](NC(=O)[C@](C)(Cc1ccccc1)NC(=O)[C@H](CO)NC(=O)CNC(=O)[C@H](CCC(=O)O)NC(=O)C(C)(C)NC(=O)[C@@H](N)Cc1c[nH]cn1)[C@@H](C)O)C(C)C)[C@@H](C)CC)C(C)C)C(C)C)C(=O)NCC(=O)NCC(N)=O)C(=O)O)C(=O)O)C(=O)O
B2: SEQ ID NO 160 (peptide)
peptide: H[Aib]EGS[αMeF]TSDV[αMeS]S[αMeF]LEGEAAK([Ahx-Ahx-Ahx-Stearoyl])E[αMeF]IA[αMeF]VV[αMeK]GG-NH2
modifications: N-terminus assumed
SMILES: CCCCCCCCCCCCCCCCCC(=O)NCCCCCC(=O)NCCCCCC(=O)NCCCCCC(=O)NCCCC[C@H](NC(=O)[C@H](C)NC(=O)[C@H](C)NC(=O)[C@H](CCC(=O)O)NC(=O)CNC(=O)[C@H](CCC(=O)O)NC(=O)[C@H](CC(C)C)NC(=O)[C@](C)(Cc1ccccc1)NC(=O)[C@H](CO)NC(=O)[C@](C)(CO)NC(=O)[C@@H](NC(=O)[C@H](CC(=O)O)NC(=O)[C@H](CO)NC(=O)[C@@H](NC(=O)[C@](C)(Cc1ccccc1)NC(=O)[C@H](CO)NC(=O)CNC(=O)[C@H](CCC(=O)O)NC(=O)C(C)(C)NC(=O)[C@@H](N)Cc1c[nH]cn1)[C@@H](C)O)C(C)C)C(=O)N[C@@H](CCC(=O)O)C(=O)N[C@@](C)(Cc1ccccc1)C(=O)N[C@H](C(=O)N[C@@H](C)C(=O)N[C@@](C)(Cc1ccccc1)C(=O)N[C@H](C(=O)N[C@H](C(=O)N[C@@](C)(CCCCN)C(=O)NCC(=O)NCC(N)=O)C(C)C)C(C)C)[C@@H](C)CC
B3: SEQ ID NO 165 (peptide)
peptide: H[Aib]EGS[αMeF]TSDV[αMeS]S[αMeF]LEGEAA[αMeK]E[αMeF]IA[αMeF]VVK([γGlu-γGlu-Lauroyl])GG-NH2
modifications: N-terminus assumed
SMILES: CCCCCCCCCCCC(=O)N[C@@H](CCC(=O)N[C@@H](CCC(=O)NCCCC[C@H](NC(=O)[C@@H](NC(=O)[C@@H](NC(=O)[C@](C)(Cc1ccccc1)NC(=O)[C@H](C)NC(=O)[C@@H](NC(=O)[C@](C)(Cc1ccccc1)NC(=O)[C@H](CCC(=O)O)NC(=O)[C@](C)(CCCCN)NC(=O)[C@H](C)NC(=O)[C@H](C)NC(=O)[C@H](CCC(=O)O)NC(=O)CNC(=O)[C@H](CCC(=O)O)NC(=O)[C@H](CC(C)C)NC(=O)[C@](C)(Cc1ccccc1)NC(=O)[C@H](CO)NC(=O)[C@](C)(CO)NC(=O)[C@@H](NC(=O)[C@H](CC(=O)O)NC(=O)[C@H](CO)NC(=O)[C@@H](NC(=O)[C@](C)(Cc1ccccc1)NC(=O)[C@H](CO)NC(=O)CNC(=O)[C@H](CCC(=O)O)NC(=O)C(C)(C)NC(=O)[C@@H](N)Cc1c[nH]cn1)[C@@H](C)O)C(C)C)[C@@H](C)CC)C(C)C)C(C)C)C(=O)NCC(=O)NCC(N)=O)C(=O)O)C(=O)O
B4: SEQ ID NO 159 (peptide)
peptide: H[Aib]EGS[αMeF]TSDV[αMeS]S[αMeF]LEGEAAK([Ahx-Ahx-Stearoyl])E[αMeF]IA[αMeF]VV[αMeK]GG-NH2
modifications: N-terminus assumed
SMILES: CCCCCCCCCCCCCCCCCC(=O)NCCCCCC(=O)NCCCCCC(=O)NCCCC[C@H](NC(=O)[C@H](C)NC(=O)[C@H](C)NC(=O)[C@H](CCC(=O)O)NC(=O)CNC(=O)[C@H](CCC(=O)O)NC(=O)[C@H](CC(C)C)NC(=O)[C@](C)(Cc1ccccc1)NC(=O)[C@H](CO)NC(=O)[C@](C)(CO)NC(=O)[C@@H](NC(=O)[C@H](CC(=O)O)NC(=O)[C@H](CO)NC(=O)[C@@H](NC(=O)[C@](C)(Cc1ccccc1)NC(=O)[C@H](CO)NC(=O)CNC(=O)[C@H](CCC(=O)O)NC(=O)C(C)(C)NC(=O)[C@@H](N)Cc1c[nH]cn1)[C@@H](C)O)C(C)C)C(=O)N[C@@H](CCC(=O)O)C(=O)N[C@@](C)(Cc1ccccc1)C(=O)N[C@H](C(=O)N[C@@H](C)C(=O)N[C@@](C)(Cc1ccccc1)C(=O)N[C@H](C(=O)N[C@H](C(=O)N[C@@](C)(CCCCN)C(=O)NCC(=O)NCC(N)=O)C(C)C)C(C)C)[C@@H](C)CC
B5: SEQ ID NO 164 (peptide)
peptide: H[Aib]EGS[αMeF]TSDV[αMeS]S[αMeF]LEGEAA[αMeK]E[αMeF]IA[αMeF]VVK([γGlu-Lauroyl])GG-NH2
modifications: N-terminus assumed
SMILES: CCCCCCCCCCCC(=O)N[C@@H](CCC(=O)NCCCC[C@H](NC(=O)[C@@H](NC(=O)[C@@H](NC(=O)[C@](C)(Cc1ccccc1)NC(=O)[C@H](C)NC(=O)[C@@H](NC(=O)[C@](C)(Cc1ccccc1)NC(=O)[C@H](CCC(=O)O)NC(=O)[C@](C)(CCCCN)NC(=O)[C@H](C)NC(=O)[C@H](C)NC(=O)[C@H](CCC(=O)O)NC(=O)CNC(=O)[C@H](CCC(=O)O)NC(=O)[C@H](CC(C)C)NC(=O)[C@](C)(Cc1ccccc1)NC(=O)[C@H](CO)NC(=O)[C@](C)(CO)NC(=O)[C@@H](NC(=O)[C@H](CC(=O)O)NC(=O)[C@H](CO)NC(=O)[C@@H](NC(=O)[C@](C)(Cc1ccccc1)NC(=O)[C@H](CO)NC(=O)CNC(=O)[C@H](CCC(=O)O)NC(=O)C(C)(C)NC(=O)[C@@H](N)Cc1c[nH]cn1)[C@@H](C)O)C(C)C)[C@@H](C)CC)C(C)C)C(C)C)C(=O)NCC(=O)NCC(N)=O)C(=O)O

Columns and labels:
Test in all cases: cell-based or functional assay
GLP-1 receptor (GLP-1R) = GLP-1 receptor (GLP-1R) (human, UniProt P43220 24-463)
[1] = biological target: T1, glucose-dependent insulinotropic …
glucagon receptor (GCGR) = glucagon receptor (GCGR) (human, UniProt P47871 26-477)
glucagon receptor (GCGR), sequence (P47871 26-477): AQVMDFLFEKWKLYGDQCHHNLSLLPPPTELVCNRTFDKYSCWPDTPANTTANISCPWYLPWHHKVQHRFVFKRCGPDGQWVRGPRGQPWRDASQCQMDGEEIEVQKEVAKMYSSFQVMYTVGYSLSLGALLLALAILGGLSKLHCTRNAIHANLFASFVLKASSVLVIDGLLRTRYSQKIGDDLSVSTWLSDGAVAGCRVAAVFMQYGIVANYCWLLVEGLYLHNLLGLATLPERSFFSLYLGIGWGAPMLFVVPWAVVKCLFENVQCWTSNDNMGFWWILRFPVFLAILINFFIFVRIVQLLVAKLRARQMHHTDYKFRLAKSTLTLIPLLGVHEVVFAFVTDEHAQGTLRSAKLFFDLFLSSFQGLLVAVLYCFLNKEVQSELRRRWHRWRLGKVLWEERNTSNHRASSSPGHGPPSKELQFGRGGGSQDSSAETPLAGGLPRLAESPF

Row | Binder | Primary assay EC50 (cAMP), GLP-1R n1 (GLP-1 receptor (GLP-1R)) | Primary assay EC50 (cAMP), GLP-1R n2 (GLP-1 receptor (GLP-1R)) | Primary assay EC50 (cAMP), Mean pM GLP-1R (GLP-1 receptor (GLP-1R)) | Primary assay EC50 (cAMP), GIP-R, first run [1] | Primary assay EC50 (cAMP), GIP-R, second run [1] | Primary assay EC50 (cAMP), Gluc-R, first run (glucagon receptor (GCGR)) | Primary assay EC50 (cAMP), Gluc-R, second run (glucagon receptor (GCGR))
1 | B1 | 0.0072 nM | 0.0027 nM | 4.9 pM | 26 nM | 26 nM | 26 nM | 26 nM
2 | H[Aib]EGS[αMeF]TSDV[αMeS]S[αMeF]LEGEAAK([PEG2′-Stearoyl])E[αMeF]IA[αMeF]VV[αMeK]GG-NH2 [SEQ ID NO 161] | 0.16 nM | 0.062 nM | 112 pM | 27 nM | 27 nM | 27 nM | 27 nM
3 | H[Aib]EGS[αMeF]TSDV[αMeS]S[αMeF]LEGEAAK([PEG2′-PEG2′-Stearoyl])E[αMeF]IA[αMeF]VV[αMeK]GG-NH2 [SEQ ID NO 162] | 0.053 nM | 0.055 nM | 54 pM | 26 nM | 26 nM | 26 nM | 26 nM
4 | B2 | 0.39 nM | 0.32 nM | 350 pM | 26 nM | 26 nM | 26 nM | 26 nM
5 | B3 | 0.014 nM | 0.006 nM | 10.2 pM | 27 nM | 27 nM | 27 nM | 27 nM
6 | B4 | 0.28 nM | 0.23 nM | 254 pM | 27 nM | 27 nM | 27 nM | 27 nM
7 | H[Aib]EGS[αMeF]TSDV[αMeS]S[αMeF]LEGEAAK([PEG2′-PEG2′-PEG2′-Stearoyl])E[αMeF]IA[αMeF]VV[αMeK]GG-NH2 [SEQ ID NO 163] | 0.063 nM | 0.049 nM | 56 pM | 25 nM | 25 nM | 25 nM | 25 nM
8 | B5 | 0.022 nM | 0.0078 nM | 14.6 pM | 28 nM | 28 nM | 28 nM | 28 nM
